Data from publication PMC10877131 (JHEP Reports, 2024).

Biological target: the molecule itself
Experiment: immunoblot

B1: Thrombospondin-2 (THBS2), overexpressed in LX-2 cells, in conditioned media (natural protein)
chain: not shown
stoichiometry N: 2
